Key:
VPS35, Q96QK1 = assay: GFP-based co-IP, western blot band quantification; settings: chain shown with the change; HEK293T cells, transient transfection; normalised to GFP band intensity; n = 3; parent: est. 100; read off a plot
endogenous VPS26, O75436 = assay: GFP-based co-IP, western blot band quantification; settings: chain shown with the change; HEK293T cells, transient transfection; normalised to GFP band intensity; n = 3; parent: est. 100; read off a plot

percent of parent (relative intensity (WT = 100)) (VPS35, Q96QK1): 22 | percent of parent (relative intensity (WT = 100)) (endogenous VPS26, O75436): 18
B1: GFP-DENND4C fragment 1087-1271, WT, Q5VZ89 Y1239D (protein)
chain: PKTSLLHIARTHSFENVSCHLPDSRTCMSESTWNPEHRSSPVPEMLEESQELLEPVVDDVPKTTATVDTYESLLSDSNSNQSRDLKTVSKDLRNKRSSLYGIAKVVQREDVETGLDPLSLLATECTGGKTPDSEDKLFSPVIARNLADEIESDMNLKSPLGSKSSSMELHREENRESGMTTAFIH
